Laboratory results reported in patent publication JP2005515752A (dated 2005).
Blank lines part the entries; values can stand above or below the binder they belong to.

Legend:
可溶性ヒトRANKL蛋白質 [1] = target: T1, 可溶性ヒトRANKL蛋白質 (human, UniProt O14788 140-317, limits assumed, biotinylated with NHS-biotin at 20:1 molar ratio in the competition ELISA (sites not given); not biotinylated in the cell assays); experiment: cell-based or functional assay
T1 sequence (looked up): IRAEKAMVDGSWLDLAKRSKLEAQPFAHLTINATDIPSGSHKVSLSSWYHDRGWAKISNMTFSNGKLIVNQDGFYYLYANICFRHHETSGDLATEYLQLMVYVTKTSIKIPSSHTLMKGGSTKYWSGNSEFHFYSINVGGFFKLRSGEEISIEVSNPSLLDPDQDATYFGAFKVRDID

可溶性ヒトRANKL蛋白質 [2] = target: T1, 可溶性ヒトRANKL蛋白質; experiment: competition ELISA: inhibition of biotinylated shRANKL binding to coated RANK-Fc
可溶性ヒトRANKL蛋白質 [3] = target: T1, 可溶性ヒトRANKL蛋白質; experiment: not described in an example; paragraph 39 names optical biosensor analysis for the Kd
可溶性ヒトRANKL蛋白質 [4] = target: T1, 可溶性ヒトRANKL蛋白質; experiment: competition ELISA: soluble competitor against biotinylated shRANKL binding to coated RANK-Fc

IC50, osteoclast formation from mouse bone marrow cells stimulated by human sRANKL (TRAP-positive cells per well) (可溶性ヒトRANKL蛋白質 [1]): ~0.2 µg/mL | concentration of complete inhibition, osteoclast formation from mouse bone marrow cells stimulated by human sRANKL (可溶性ヒトRANKL蛋白質 [1]): 1 µg/mL | IC50 (可溶性ヒトRANKL蛋白質 [2]): ~0.5 nM
B1: OPG−Fc (Fc fusion, UniProt O00300 22-201, looked up)
chain: ETFPPKYLHYDEETSHQLLCDKCPPGTYLKQHCTAKWKTVCAPCPDHYYTDSWHTSDECLYCSPVCKELQYVKQECNRTHNRVCECKEGRYLEIEFCLKHRSCPPGFGVVQAGTPERNTVCKRCPDGFFSNETSSKAPCRKHTNCSVFGLLLTQKGNATHDNICSGNSESTQKCGIDVTL
notes: also called osteoprotegerin-Fc; not shown: Fc part; not described

Kd (可溶性ヒトRANKL蛋白質 [3]): ~0.1 nM | IC50, osteoclast formation from human monocytes with human soluble RANKL and M-CSF (multinucleated cells) (可溶性ヒトRANKL蛋白質 [1]): ~4 µg/mL | IC50, osteoclast formation from mouse bone marrow cells stimulated by human sRANKL (TRAP-positive cells per well) (可溶性ヒトRANKL蛋白質 [1]): ~0.2 µg/mL | concentration of complete inhibition, osteoclast formation from mouse bone marrow cells stimulated by human sRANKL (可溶性ヒトRANKL蛋白質 [1]): 1 µg/mL | IC50 (可溶性ヒトRANKL蛋白質 [2]): ~2 nM
B2: マウスモノクローナル抗体14F3 (antibody, V domains shown)
VH: EVQLVESGGDLVKPGGSLKLSCAASGFTFSRYGMSWVRQTPDKRLEWVATISSGGSYTYYPDSVKGRFTISRDNAKNTLYLQMSSLKSEDTAMYYCARLDGYNYRWYFDVWGTGTTVTVSS
VL: DIVMTQSHKFMSTSVGDRVSITCKASQDVSSAVAWYQQKPGQSPKLLIYSASYRYTGVPDRFTGSGSGTDFTFTISSVQAEDLAVYYCQQHYSSPRTFGGGTNLEIKR
notes: Murine IgG2a/kappa purified from hybridoma; also called RANKL mAb 14F3; mAb14F3

IC50, osteoclast formation from human monocytes with human soluble RANKL and M-CSF (multinucleated cells) (可溶性ヒトRANKL蛋白質 [1]): ~0.5 µg/mL | concentration of complete inhibition, osteoclast formation from mouse bone marrow cells stimulated by human sRANKL (可溶性ヒトRANKL蛋白質 [1]): 10 µg/mL | IC50 (可溶性ヒトRANKL蛋白質 [4]): ~6 nM
B3: ヒトRANK−Fc融合蛋白質 (Fc fusion, human, UniProt Q9Y6Q6 30-212, looked up)
chain: IAPPCTSEKHYEHLGRCCNKCEPGKYMSSKCTTTSDSVCLPCGPDEYLDSWNEEDKCLLHKVCDTGKALVAVVAGNSTTPRRCACTAGYHWSQDCECCRRNTECAPGLGAQHPLQLNKDTVCKPCLAGYFSDAFSSTDKCRPWTNCTFLGKRVEHHGTEKSDAVCSSSLPARKPPNEPHVYLP
notes: Construct limits and Fc not described; also called RANK−Fc蛋白質; not shown: Fc part
